The record followed here is patent US20100064383A1.

The test concerns the target bHLH protein EGL3 from Arabidopsis (Arabidopsis) (UniProt Q9CAD0). In words: cell-based or functional assay.
Chain of UniProt Q9CAD0 (Q9CAD0 whole entry): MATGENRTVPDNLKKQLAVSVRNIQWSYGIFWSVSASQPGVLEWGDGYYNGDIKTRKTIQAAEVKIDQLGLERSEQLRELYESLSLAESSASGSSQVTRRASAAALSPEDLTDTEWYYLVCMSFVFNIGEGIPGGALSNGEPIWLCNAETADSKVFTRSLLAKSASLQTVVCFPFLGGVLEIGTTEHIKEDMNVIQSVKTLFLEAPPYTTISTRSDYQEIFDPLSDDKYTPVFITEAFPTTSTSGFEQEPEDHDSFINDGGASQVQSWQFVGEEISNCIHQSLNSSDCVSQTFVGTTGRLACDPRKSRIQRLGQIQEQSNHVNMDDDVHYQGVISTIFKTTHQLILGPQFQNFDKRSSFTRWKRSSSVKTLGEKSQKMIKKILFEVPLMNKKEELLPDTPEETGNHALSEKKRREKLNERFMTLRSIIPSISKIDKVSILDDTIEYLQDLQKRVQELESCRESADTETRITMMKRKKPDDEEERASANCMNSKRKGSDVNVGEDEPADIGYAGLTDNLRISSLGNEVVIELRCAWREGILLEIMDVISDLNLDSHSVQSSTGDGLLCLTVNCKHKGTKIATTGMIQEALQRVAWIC

Substance VvMYBPA1 showed an induction of the VvLDOX promoter, dual-luciferase transient assay in grape cells (fold over control without MYB factor) of 125 fold.
